T1: human Scribble PDZ3 domain (1005-1094) (human, UniProt Q14160 1005-1094)
T1 sequence (looked up): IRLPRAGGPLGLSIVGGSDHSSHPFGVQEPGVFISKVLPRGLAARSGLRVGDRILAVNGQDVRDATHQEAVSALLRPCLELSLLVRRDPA

B1: HPV51 E6 C-terminal PBM 10-mer peptide (RTRQRNETQV) (peptide)
peptide: RTRQRNETQV
B2: HPV31 E6 C-terminal PBM 10-mer peptide (WRRPRTETQV) (peptide)
peptide: WRRPRTETQV
B3: HPV16 E6 C-terminal PBM 10-mer peptide (SSRTRRETQL) (peptide)
peptide: SSRTRRETQL
B4: HPV33 E6 C-terminal PBM 10-mer peptide (WRSRRRETAL) (peptide)
peptide: WRSRRRETAL
B5: HPV18 E6 C-terminal PBM 10-mer peptide (RLQRRRETQV) (peptide)
peptide: RLQRRRETQV
B6: HPV70 E6 C-terminal PBM 10-mer peptide (RRRIRRETQV) (peptide)
peptide: RRRIRRETQV
B7: HPV66 E6 C-terminal PBM 10-mer peptide (TSRQATESTV) (peptide)
peptide: TSRQATESTV

Columns and labels:
[1] = molecular target: human Scribble PDZ1 domain (728-815) (human, UniProt Q14160 728-815); assay: ITC
[2] = molecular target: T1, human Scribble PDZ3 domain (1005-1094); assay: ITC

Sequence of human Scribble PDZ1 domain (728-815) (Q14160 728-815): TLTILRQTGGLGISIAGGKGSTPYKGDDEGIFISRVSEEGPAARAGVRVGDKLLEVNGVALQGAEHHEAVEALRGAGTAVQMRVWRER

Binder | binding result [1] | binding result [2] | Kd [1] [µM]
B1 | binds | binds | 
B2 | binds | binds | 
B3 |  |  | 9.4
B4 | binds | binds | 
B5 |  | binds | 
B6 | binds | binds | 
B7 | binds | binds | 

Reference: article doi:10.1101/2022.10.12.511839 (bioRxiv, 2022)
